Experimental data taken from patent US20200093866A1, “Use of selected single cobrotoxin molecule as an analgesic” (priority 2018, published 2020).

Assays:
Kunming mice [1] = assay: Acetic acid writhing test, oral administration; type: in vivo; conditions: for frequency of writhing induced by acetic acid: 160, 320 or 480 μg/kg oral; for ED50 of the anti-nociceptive effect of acetic acid induced writhing: oral administration
Description: Writhing test for the evaluation of analgesic effect by oral administration METHOD: A total number of 60 Kunming mice were used, 10 per group, with a weight of 20±2 g.

Kunming mice [2] = assay: Acetic acid writhing test, parenteral (iv) injection; type: in vivo; conditions: for inhibitory rate of mice writhing / time at which analgesic effect started: 60 μg/kg iv; for inhibitory rate of mice writhing: 90 minutes after administration; for time at which analgesic effect started / frequency of writhing induced by acetic acid / ED50 of the anti-nociceptive effect of acetic acid induced writhing: mice; for frequency of writhing induced by acetic acid: 30, 45 or 60 μg/kg iv; for ED50 of the anti-nociceptive effect of acetic acid induced writhing: iv
Experimental: Writhing test for the evaluation of analgesic effect by parenteral injection The writhing test is a chemical method used to induce pain of peripheral origin by injection of irritant principles like acetic acid in mice. Analgesic effect of the test compound is inferred from the decrease in the frequency of writhing.
METHOD: A total number of 60 Kunming mice were used, 10 per group, with a weight of 20±2 g. […] At dose of 60 μg/kg (iv), The analgesic effect started at 30 minutes, and could reach 60˜70% inhibitory rate of mice writhing at 90 minutes after administration. The ED50 of the anti-nociceptive effect of acetic acid induced writhing was 40˜50 μg/kg in the writhing test for Chain A, Cobrotoxin and Chain A, Cobrotoxin B.

[3] = Quantitative microdialysis of unbound brain extracellular fluid (bECF) concentration after IV injection; type: in vivo, rat; conditions: rats, 125I-labeled, 120 μg, dialysate over 360 minutes, FIG. 4
Description: The estimated molecular weights of Chain A, Cobrotoxin, Chain A, Cobrotoxin B are 6.9±0.6 KDa; the estimated molecular weights of a cobrotoxins complexes extracted from crude venom ranged from approximately 6.5 KDa to 15 KDa. Quantitative microdialysis (QMD) is used to determine the absolute unbound brain extracellular fluid (bECF) concentration of Chain A, Cobrotoxin, Chain A, Cobrotoxin B, and the cobrotoxins complexes. QMD is the only technique that enables sampling of bECF in conscious animals and provides direct evidence of exposure at extracellular target sites (Kielbasa and Stratford, Jr. 2015)
QMD consists of implanting a probe in rat (FIG.-3). The membrane of the probe will allow the exchange of perfusate with bECF, so the concentration of Chain A, Cobrotoxin, Chain A, Cobrotoxin B, and a cobrotoxins complexes in bECF could be measured through dialysate. […] In response, an in vivo recovery rate test of the probe (MD-2200) was performed on 125I-labeled Chain A, Cobrotoxin, Chain A, Cobrotoxin B, and a cobrotoxins complexes, each with three different concentrations of 5, 25, and 50 ng/ml as perfusate, with a flow rate of 2 μL/min was perfused through the probe. During microdialysis, the dialysate was collected every 10 minutes for an hour, then tested using SN629B-radioimmunoassay counter to calculate cpm. […] The recovery rate (by loss) % was calculated as: […]

nAChR = molecular target: T1, nAChR (Rattus norvegicus, UniProt P09660+P25108+P25110); assay: 125I labeled-αBtx-nAChR binding inhibition test (radio-immunoprecipitation); conditions: nAChR crude extract from rat skeletal muscle; approximate
T1 construct: nAChR crude extract from rat skeletal muscle; from tissue; host or cells: rat skeletal muscle (crude extract)
T1 sequence (P25108 21-457): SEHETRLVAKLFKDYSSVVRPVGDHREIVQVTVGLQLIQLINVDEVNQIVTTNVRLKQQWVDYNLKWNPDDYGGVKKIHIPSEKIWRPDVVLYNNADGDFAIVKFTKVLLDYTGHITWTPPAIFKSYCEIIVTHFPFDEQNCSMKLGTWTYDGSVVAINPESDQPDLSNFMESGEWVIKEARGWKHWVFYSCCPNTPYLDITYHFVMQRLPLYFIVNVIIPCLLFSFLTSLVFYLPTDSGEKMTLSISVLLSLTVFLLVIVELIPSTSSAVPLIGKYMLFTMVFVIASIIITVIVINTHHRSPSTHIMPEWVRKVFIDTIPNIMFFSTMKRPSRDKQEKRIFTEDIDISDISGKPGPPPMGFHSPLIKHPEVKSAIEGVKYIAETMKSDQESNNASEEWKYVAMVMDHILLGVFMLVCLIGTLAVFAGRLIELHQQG
T1 sequence (P25110 22-517): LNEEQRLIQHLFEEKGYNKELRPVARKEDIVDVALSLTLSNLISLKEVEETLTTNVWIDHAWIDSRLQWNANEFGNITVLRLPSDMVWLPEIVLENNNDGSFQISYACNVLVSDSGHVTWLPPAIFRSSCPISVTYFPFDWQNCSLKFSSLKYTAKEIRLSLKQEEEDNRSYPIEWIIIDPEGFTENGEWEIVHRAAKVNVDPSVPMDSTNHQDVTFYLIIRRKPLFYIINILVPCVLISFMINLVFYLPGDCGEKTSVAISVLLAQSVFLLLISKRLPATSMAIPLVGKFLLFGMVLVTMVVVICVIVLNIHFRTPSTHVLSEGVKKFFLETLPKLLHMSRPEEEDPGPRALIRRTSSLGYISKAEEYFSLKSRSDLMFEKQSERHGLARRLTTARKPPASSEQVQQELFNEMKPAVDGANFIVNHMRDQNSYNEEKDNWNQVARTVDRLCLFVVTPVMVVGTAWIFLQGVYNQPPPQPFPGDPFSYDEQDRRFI
T1 sequence (P09660 21-494): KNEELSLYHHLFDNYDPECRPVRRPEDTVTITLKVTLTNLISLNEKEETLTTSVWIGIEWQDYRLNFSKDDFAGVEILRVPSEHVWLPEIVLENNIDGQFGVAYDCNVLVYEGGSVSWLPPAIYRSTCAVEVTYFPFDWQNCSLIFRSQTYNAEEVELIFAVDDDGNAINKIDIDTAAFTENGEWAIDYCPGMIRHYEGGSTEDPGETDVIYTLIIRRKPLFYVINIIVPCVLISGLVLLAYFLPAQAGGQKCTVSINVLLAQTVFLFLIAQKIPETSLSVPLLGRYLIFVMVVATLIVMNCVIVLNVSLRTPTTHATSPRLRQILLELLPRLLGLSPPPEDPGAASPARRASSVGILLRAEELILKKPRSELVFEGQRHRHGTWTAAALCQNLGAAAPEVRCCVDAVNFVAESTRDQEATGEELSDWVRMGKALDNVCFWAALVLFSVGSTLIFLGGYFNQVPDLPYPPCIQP
T1 sequence (P25109 24-501 partner): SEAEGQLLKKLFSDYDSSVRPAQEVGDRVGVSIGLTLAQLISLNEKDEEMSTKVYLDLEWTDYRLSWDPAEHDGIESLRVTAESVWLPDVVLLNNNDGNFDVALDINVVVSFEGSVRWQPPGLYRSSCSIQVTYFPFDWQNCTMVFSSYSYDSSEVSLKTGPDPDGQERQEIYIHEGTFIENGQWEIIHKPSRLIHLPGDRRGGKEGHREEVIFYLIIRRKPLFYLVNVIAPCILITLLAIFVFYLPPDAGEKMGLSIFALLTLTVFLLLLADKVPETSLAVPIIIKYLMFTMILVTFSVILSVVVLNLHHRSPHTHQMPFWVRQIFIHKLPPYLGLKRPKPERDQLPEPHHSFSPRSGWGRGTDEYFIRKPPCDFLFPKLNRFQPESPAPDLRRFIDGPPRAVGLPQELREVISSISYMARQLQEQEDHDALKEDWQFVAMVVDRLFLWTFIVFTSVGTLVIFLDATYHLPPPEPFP
Description: As shown in FIG.-2, a total of 12 fractions from the aforementioned ion-exchange chromatography were further desalted and purified by a reverse-phase HPLC (RP-HPLC) with Vydac RP-C18 (4.6×250 mm, 5.0 um). Fractions A and B were identified as high-affinity cobrotoxins with enhanced binding ability to nAChR in a later 125I labeled-αBtx-nAChR binding inhibition test. • 2) Screening and selection of single cobrotoxin molecule with high affinity binding to nAChR for better drug target engagement The 125I labeled-α-bungarotoxin(αBtx)-nAChR binding inhibition test was performed to evaluate the affinities of different cobrotoxins molecules. […] Higher the affinity of cobrotoxin with nAChR, greater the inhibitory rate toward α-bungarotoxin's binding to nAChR. In our radio-immunoprecipitation test, only nAChR bonded α-bungarotoxin will be precipitated with nicotinic acetylcholine antibody (mAb 35) and Rabbit Anti-Rat IgG, whilst unbounded α-bungarotoxin will be washed out. By testing the concentration of bonded α-bungarotoxin, we can determine the inhibitory rates of different cobrotoxins molecules isolated in step 1).
Calculation of “125I-αBtx-nAChR binding inhibitory rate (%)” […]
The 125I-αBtx-nAChR binding inhibition experiment process is performed and described in following sequence: • i. […] The (Bq) value per second was measured using the gamma radioimmunoassay counter.

Wistar rats = assay: Tail flick test (thermal radiation), Periaqueductal Gray injection; type: in vivo; conditions: PAG injection; for latency induced by thermal radiation (tail flick): 1.5, 3.0 and 6.0 μg/kg; for time at which analgesic effect appeared / time at which analgesic effect peaked: after drug administration; for maximum increase of pain threshold: tail flick
Experimental: Most commonly, an intense light beam is focused on the animal's tail and a timer starts. When the animal flicks its tail, the timer stops and the recorded time (latency) is a measure of the pain threshold.
METHODS: Periaqueductal Gray (PAG) was injected with selected cobrotoxin molecule in rats, and the central analgesic effect was evaluated by the tail flick due to thermal radiation. 20 Wistar rats with a weight of 200±20 g were divided into 2 groups, 10 per group. […] The analgesic effect of Chain A, Cobrotoxin and Chain A, Cobrotoxin B appeared in 10˜15 minutes and peaked at 25˜30 minutes after drug administration. The maximum increase of pain threshold was over 200%.

Kunming mice [4] = assay: Respiratory inhibition test; type: in vivo; conditions: effective dose of 60 μg/kg, 10 Kunming mice
Description: 4) Respiratory inhibition test Chain A, Cobrotoxin and Chain A, Cobrotoxin B were separately administered to 10 Kunming mice of 20±2 g.

Kunming mice [5] = assay: Acetic acid writhing test, nasal administration; type: in vivo; conditions: for frequency of writhing induced by acetic acid: 30, 45 or 60 μg/kg nasal; for frequency of writhing induced by acetic acid / ED50 of the anti-nociceptive effect of acetic acid induced writhing / time at which analgesic effect started: mice; for duration of analgesic effect / ED50 of the anti-nociceptive effect of acetic acid induced writhing / time at which analgesic effect started: nasal administration; for duration of analgesic effect: after drug administration
Experimental: Writhing test for the evaluation of analgesic effect by nasal administration METHOD: A total number of 60 Kunming mice were used, 10 per group, with a weight of 20±2 g. […] The analgesic effect started at 30 minutes and lasted at least for 6 hours after drug administration.

mice = conditions: i.c.v. injection, mice (Chen and Robinson, 1990); cited from earlier work

## Chain A, Cobrotoxin B
Kunming mice [1]
  frequency of writhing induced by acetic acid: dose-dependent decrease
  ED50 of the anti-nociceptive effect of acetic acid induced writhing: 300˜350 μg/kg
Kunming mice [2]
  inhibitory rate of mice writhing: 60˜70%
  time at which analgesic effect started: 30 min
  frequency of writhing induced by acetic acid: dose-dependent decrease
  ED50 of the anti-nociceptive effect of acetic acid induced writhing: 40˜50 μg/kg
[3]
  time course of reaching bECF brain concentration versus cobrotoxins complexes: always ahead of the cobrotoxins complexes in reaching a specific concentration
nAChR
  125I-αBtx-nAChR binding inhibitory rate: 40%-50%
Wistar rats
  latency induced by thermal radiation (tail flick): dose-dependent increase
  ED50 of the antinociceptive effect of thermal radiation-induced tail flick: 3.3˜4.0 μg/kg
  time at which analgesic effect appeared: 10˜15 minutes
  time at which analgesic effect peaked: 25˜30 minutes
  maximum increase of pain threshold: over 200%
Kunming mice [4]
  respiratory inhibition: No respiratory inhibition was observed
Kunming mice [5]
  frequency of writhing induced by acetic acid: dose-dependent decrease
  duration of analgesic effect: ≥ 6 h
  ED50 of the anti-nociceptive effect of acetic acid induced writhing: 38˜46 μg/kg
  time at which analgesic effect started: 30 min

B1: cobrotoxin (protein, UniProt P60770 22-83, looked up)
Cobrotoxin: LECHNQQSSQTPTTTGCSGGETNCYKKRWRDHRGYRTERGCGCPSVKNGIEINCCTTDRCNN
mice
  antinociceptive response in tail-flick test: produced an antinociceptive response

B2: Chain A, Cobrotoxin (protein, UniProt P60770 22-83, looked up)
Cobrotoxin: LECHNQQSSQTPTTTGCSGGETNCYKKRWRDHRGYRTERGCGCPSVKNGIEINCCTTDRCNN
Kunming mice [1]
  frequency of writhing induced by acetic acid: dose-dependent decrease
  ED50 of the anti-nociceptive effect of acetic acid induced writhing: 300˜350 μg/kg
Kunming mice [2]
  inhibitory rate of mice writhing: 60˜70%
  time at which analgesic effect started: 30 min
  frequency of writhing induced by acetic acid: dose-dependent decrease
  ED50 of the anti-nociceptive effect of acetic acid induced writhing: 40˜50 μg/kg
[3]
  time course of reaching bECF brain concentration versus cobrotoxins complexes: always ahead of the cobrotoxins complexes in reaching a specific concentration
nAChR
  125I-αBtx-nAChR binding inhibitory rate: 40%-50%
Wistar rats
  latency induced by thermal radiation (tail flick): dose-dependent increase
  ED50 of the antinociceptive effect of thermal radiation-induced tail flick: 3.3˜4.0 μg/kg
  time at which analgesic effect appeared: 10˜15 minutes
  time at which analgesic effect peaked: 25˜30 minutes
  maximum increase of pain threshold: over 200%
Kunming mice [4]
  respiratory inhibition: No respiratory inhibition was observed
Kunming mice [5]
  frequency of writhing induced by acetic acid: dose-dependent decrease
  duration of analgesic effect: ≥ 6 h
  ED50 of the anti-nociceptive effect of acetic acid induced writhing: 38˜46 μg/kg
  time at which analgesic effect started: 30 min
